Experimental data: patent US20230313215A1 (published 2023)

Experiments:
[1] = target: T1, 2x syn. clamp (two-PDZ clamp, nc=2); experiment: cell-based or functional assay
T1 chain: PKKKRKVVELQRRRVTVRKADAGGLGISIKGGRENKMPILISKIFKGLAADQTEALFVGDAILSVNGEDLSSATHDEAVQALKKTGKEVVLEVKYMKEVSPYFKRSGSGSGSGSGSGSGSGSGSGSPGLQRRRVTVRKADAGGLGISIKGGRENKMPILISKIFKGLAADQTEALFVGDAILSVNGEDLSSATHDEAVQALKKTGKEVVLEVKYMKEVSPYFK

[2] = target: T2, 3x syn. clamp (three-PDZ clamp, nc=3); experiment: cell-based or functional assay
T2 chain: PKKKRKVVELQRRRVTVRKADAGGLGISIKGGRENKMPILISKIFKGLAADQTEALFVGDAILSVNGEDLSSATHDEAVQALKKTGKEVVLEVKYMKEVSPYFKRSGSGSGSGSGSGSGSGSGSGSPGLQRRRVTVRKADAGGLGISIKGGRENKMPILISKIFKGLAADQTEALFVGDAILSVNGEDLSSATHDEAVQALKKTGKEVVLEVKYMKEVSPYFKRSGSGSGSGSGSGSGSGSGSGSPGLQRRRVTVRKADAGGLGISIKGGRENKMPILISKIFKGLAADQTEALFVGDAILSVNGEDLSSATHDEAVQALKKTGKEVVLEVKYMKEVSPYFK

B1: MBP-43-8(low)-syn. lig.(S5), ligand VKESLV (other, not shown: large carriers)
chain: GEAPFQCRICMANFSRQDRLDRHTRTHTGEKPFQCRICMANFSQKEHLAGHLRTHTGEKPFQCRICMANFSRRDNLNRHLKTHLRGSGSGVKESLV
EC50 of synTF titration on nc=2 DBM oligo probe (fluorescence anisotropy) in the presence of clamp [1]: 18 nM
EC50 of synTF titration on nc=3 DBM oligo probe (fluorescence anisotropy) in the presence of three-PDZ clamp [2]: 5.1 nM
